Experimental data taken from paper PMC9061725, “GGDEF domain as spatial on-switch for a phosphodiesterase by interaction with landmark protein HubP” (NPJ Biofilms and Microbiomes, 2022).

B2: MBP-GGDEF_(SoPdeB), GGDEF domain of S. oneidensis PdeB, wild type (domain or fragment, UniProt Q8EJM6 454-587, looked up)
chain: RSLAVCYLDLEQFKLINDSCGHTAGDRMLAMVARAIQSCLGPQELLARIGGDEFGLVICDRTALAVAQLLKQIIAQVSLQVLHDKNCNYKVGLSIGVAFGRAPYINAQELLKDADIACIAAKAKGTNQIHIYDD
notes: GGDEF (diguanylate cyclase) domain of the phosphodiesterase PdeB of Shewanella oneidensis; construct limits may stand there; The MBP tag is named for SEC, iSCAMS and pull-down; also called SoGGDEF; SoGGDEF_(PdeB); source: E. coli BL21(DE3), pET24c, purified (His Trap, SEC)

What was measured:
[1] = target: FimV domain of S. putrefaciens HubP (S. putrefaciens)
MshE = target: T1, MshE (Shewanella putrefaciens, UniProt A0ABX8XDM4); experiment: isothermal titration calorimetry; details: 25 °C; one set of binding sites; value only in figure; read-out: dissociation constant
T1 construct: gene tadA; full-length, His-tag purified from E. coli BL21(DE3); strain inferred from locus prefix Sputcn32
T1 sequence (A0ABX8XDM4 1-586): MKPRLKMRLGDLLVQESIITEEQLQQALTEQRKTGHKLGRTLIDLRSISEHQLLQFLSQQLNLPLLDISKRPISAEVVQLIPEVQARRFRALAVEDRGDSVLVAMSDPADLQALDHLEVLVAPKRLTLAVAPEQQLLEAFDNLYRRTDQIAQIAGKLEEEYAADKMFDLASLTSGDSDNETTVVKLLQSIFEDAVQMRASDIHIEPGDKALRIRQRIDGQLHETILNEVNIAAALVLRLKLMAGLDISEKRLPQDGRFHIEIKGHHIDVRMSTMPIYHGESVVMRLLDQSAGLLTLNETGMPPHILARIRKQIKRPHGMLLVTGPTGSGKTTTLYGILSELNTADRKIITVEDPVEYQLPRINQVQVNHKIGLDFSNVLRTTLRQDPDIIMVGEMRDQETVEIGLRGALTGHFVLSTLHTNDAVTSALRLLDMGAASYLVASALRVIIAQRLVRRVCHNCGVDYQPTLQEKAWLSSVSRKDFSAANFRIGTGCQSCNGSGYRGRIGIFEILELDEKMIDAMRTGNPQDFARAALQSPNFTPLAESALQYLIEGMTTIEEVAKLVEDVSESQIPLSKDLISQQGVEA
From the text: isothermal titration calorimetry on MshE | both MshE and MshE-N bind c-di-GMP with high affinity

MshE-N = target: T2, MshE-N (Shewanella putrefaciens, UniProt A0ABX8XDM4); experiment: isothermal titration calorimetry; details: 25 °C; one set of binding sites; value only in figure; read-out: dissociation constant
T2 construct: gene tadA; N-terminal domain aa 2-145, His-tag purified from E. coli BL21(DE3); strain inferred from locus prefix Sputcn32
From the text: isothermal titration calorimetry on MshE-N | both MshE and MshE-N bind c-di-GMP with high affinity

[2] = target: B2; experiment: BLI; biotinylated SoFimV held on streptavidin biosensors (BLITZ), SoGGDEF variants as analyte; medium salt HEPES buffer pH 7.5 for association only, high-salt Tris buffer pH 8 for association-dissociation; details: both partners purified
SoGGDEF_(PdeB) K575S = target: T3, SoGGDEF_(PdeB) K575S (S. oneidensis, UniProt Q8EJM6 454-587, K575S); experiment: BLI
T3 sequence: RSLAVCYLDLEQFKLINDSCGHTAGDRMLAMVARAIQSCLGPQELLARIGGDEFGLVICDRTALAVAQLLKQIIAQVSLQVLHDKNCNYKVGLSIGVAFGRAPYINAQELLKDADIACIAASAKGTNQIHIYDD

SoGGDEF_(PdeB) G494A = target: T4, SoGGDEF_(PdeB) G494A (S. oneidensis, UniProt Q8EJM6 454-587, G494A); experiment: BLI
T4 sequence: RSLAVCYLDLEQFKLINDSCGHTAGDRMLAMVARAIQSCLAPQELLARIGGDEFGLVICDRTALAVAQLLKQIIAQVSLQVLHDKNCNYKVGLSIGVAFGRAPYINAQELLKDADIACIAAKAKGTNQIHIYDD

SoGGDEF_(PdeB) K577S = target: T5, SoGGDEF_(PdeB) K577S (S. oneidensis, UniProt Q8EJM6 454-587, K577S); experiment: BLI
T5 sequence: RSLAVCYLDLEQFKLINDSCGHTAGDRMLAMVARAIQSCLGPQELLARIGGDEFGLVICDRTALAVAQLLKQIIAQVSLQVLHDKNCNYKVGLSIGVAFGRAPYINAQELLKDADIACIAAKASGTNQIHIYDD

SoGGDEF_(PdeB) E497S = target: T6, SoGGDEF_(PdeB) E497S (S. oneidensis, UniProt Q8EJM6 454-587, E497S); experiment: BLI
T6 sequence: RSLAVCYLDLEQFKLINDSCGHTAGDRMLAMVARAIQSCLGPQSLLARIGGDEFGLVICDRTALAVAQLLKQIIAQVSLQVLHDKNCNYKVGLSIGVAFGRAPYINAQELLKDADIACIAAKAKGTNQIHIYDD

SoGGDEF_(PdeB) Q525S = target: T7, SoGGDEF_(PdeB) Q525S (S. oneidensis, UniProt Q8EJM6 454-587, Q525S); experiment: BLI
T7 sequence: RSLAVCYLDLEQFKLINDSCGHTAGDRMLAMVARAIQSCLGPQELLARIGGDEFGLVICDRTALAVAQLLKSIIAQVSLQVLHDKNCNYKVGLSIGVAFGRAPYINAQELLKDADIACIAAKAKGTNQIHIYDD

[3] = target: T8, FimV domain of S. oneidensis HubP (S. oneidensis, biotinylated with EZ-Link NHS-PEG4-biotin (for the BLI assay only)); experiment: interferometric scattering mass spectrometry (iSCAMS, mass photometry); MBP-GGDEF_(SoPdeB)/FimV_(HubP) complex, samples prepared at 1 µM, low-salt HEPES buffer (20 mM HEPES, 50 mM NaCl, 50 mM KCl, 5 mM MgCl2, pH 7.5), room temperature; details: both partners purified
T8 chain: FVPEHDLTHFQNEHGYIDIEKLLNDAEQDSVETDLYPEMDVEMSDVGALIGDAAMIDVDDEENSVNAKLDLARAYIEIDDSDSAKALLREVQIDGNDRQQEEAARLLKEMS

[4] = target: T8, FimV domain of S. oneidensis HubP; experiment: BLI; biotinylated SoFimV held on streptavidin biosensors (BLITZ), SoGGDEF variants as analyte; medium salt HEPES buffer pH 7.5 for association only, high-salt Tris buffer pH 8 for association-dissociation; details: both partners purified

Question: For “S. putrefaciens PdeB-mVenus K527E/Q528S (natural protein)”, which single-molecule tracking of PdeB-mVenus K527E/Q528S in S. putrefaciens cells: share of static molecules [1] is on record?
Answer: Its single-molecule tracking of PdeB-mVenus K527E/Q528S in S. putrefaciens cells: share of static molecules is 61%.

Question: How did the single-molecule tracking of PdeB-mVenus in S. putrefaciens cells: share of molecules statically confined to the cell pole [1] turn out when “MBP-GGDEF_(PdeB), GGDEF domain of S. putrefaciens PdeB (domain or fragment)” was run?
Answer: Its single-molecule tracking of PdeB-mVenus in S. putrefaciens cells: share of molecules statically confined to the cell pole is 84%.

Question: How did the Kd (MshE) turn out when `Nc1nc2c(ncn2[C@@H]2O[C@@H]3CO[P@](=O)(O)O[C@H]4[C@@H](O)[C@H](n5cnc6c(=O)[nH]c(N)nc65)O[C@@H]4CO[P@](=O)(O)O[C@H]3[C@H]2O)c(=O)[nH]1` [c-di-GMP] was run?
Answer: Its Kd is 9 µM.

Question: What about the Kd (MshE-N) of the same molecule?
Answer: Its Kd is 4 µM.

B1: FimV domain of S. oneidensis HubP (domain or fragment)
chain: FVPEHDLTHFQNEHGYIDIEKLLNDAEQDSVETDLYPEMDVEMSDVGALIGDAAMIDVDDEENSVNAKLDLARAYIEIDDSDSAKALLREVQIDGNDRQQEEAARLLKEMS
modifications: biotinylated with EZ-Link NHS-PEG4-biotin (for the BLI assay only)
Question: What does the source list for B1?
Answer: Kd [2]: ~0.2 µM; Kd (SoGGDEF_(PdeB) K575S): 22 µM; Kd (SoGGDEF_(PdeB) G494A): 0.835 µM; Kd (SoGGDEF_(PdeB) K577S): 2.72 µM; Kd (SoGGDEF_(PdeB) E497S): 0.299 µM; Kd (SoGGDEF_(PdeB) Q525S): 0.592 µM

Question: With B2 as the molecule, how does the “stoichiometry N” value [3] read?
Answer: The value was ~1 GGDEF per FimV (2:2).

B3: SoGGDEF_(PdeB) K575S (domain or fragment, S. oneidensis, UniProt Q8EJM6 454-587, looked up)
chain: RSLAVCYLDLEQFKLINDSCGHTAGDRMLAMVARAIQSCLGPQELLARIGGDEFGLVICDRTALAVAQLLKQIIAQVSLQVLHDKNCNYKVGLSIGVAFGRAPYINAQELLKDADIACIAASAKGTNQIHIYDD
notes: GGDEF domain of PdeB of Shewanella oneidensis with K575S; Variant of m1; the methods of the pull-down call the GGDEF variants MBP-tagged; source: E. coli BL21(DE3), pET24c, purified (His Trap, SEC)
Question: With B3 as the molecule, how does the “fold increase of KD against the wild type” value [4] read?
Answer: Its value is 100 fold.

B4: SoGGDEF_(PdeB) K577S (domain or fragment, S. oneidensis, UniProt Q8EJM6 454-587, looked up)
chain: RSLAVCYLDLEQFKLINDSCGHTAGDRMLAMVARAIQSCLGPQELLARIGGDEFGLVICDRTALAVAQLLKQIIAQVSLQVLHDKNCNYKVGLSIGVAFGRAPYINAQELLKDADIACIAAKASGTNQIHIYDD
notes: GGDEF domain of PdeB of Shewanella oneidensis with K577S; Variant of m1; the methods of the pull-down call the GGDEF variants MBP-tagged; source: E. coli BL21(DE3), pET24c, purified (His Trap, SEC)
Question: With B4 as the molecule, how does the “fold increase of KD against the wild type” value [4] read?
Answer: Its value is 10 fold.
